Experimental data: paper PMC4923907

Molecular target: GG-SpaA E269A mutant, residues 35-302 (Lactobacillus rhamnosus GG (ATCC 53103))
Experiment: SEC; size-exclusion chromatography of purified E269A protein, Sephacryl S-200 26/60, 20 mM Tris pH 7.5, 150 mM NaCl, 1 mM EDTA; two forms recovered, trimeric (E1) and monomeric (E2)

stoichiometry N: 3
Substance: GG-SpaA E269A mutant, residues 35-302 (domain or fragment)
